# Reference: paper PMC6726835 (Cancer Science, 2019)
# Target: Recombinant soluble form (amino acids 297-580) of human mesothelin (r-MSLN) (Homo sapiens, UniProt Q13421)
# Assay: BLI
row,Kd,Binder
1,4.68 nM,"Antihuman MSLN His-Tag scFv clone H1a050 (scFv, V domains shown) VH: EVQLVQSGGGLVQPDRSLRLSCAASGFTFDDYAMHWVRQAPGKGLEWVSGISWNSGSIGYADSVKGRFTISRDNAKNSLYLQMNSLRAEDTALYYCAKDLGSYYGSGSGMDVWGQGTTVTVSS VL: SYELTQPPSVSVSPGQTARITCSGNALPKQYAYWYQQKPGQAPVLMIYKDSERPSGIPERFSGSSSGTTVTLTISGVQAEDEADYYCQSADSSHTYKVFGGGTKLTVL"
2,3.38 nM,"DFO-conjugated His-Tag scFv clone H1a050 (scFv, V domains shown) VH: EVQLVQSGGGLVQPDRSLRLSCAASGFTFDDYAMHWVRQAPGKGLEWVSGISWNSGSIGYADSVKGRFTISRDNAKNSLYLQMNSLRAEDTALYYCAKDLGSYYGSGSGMDVWGQGTTVTVSS VL: SYELTQPPSVSVSPGQTARITCSGNALPKQYAYWYQQKPGQAPVLMIYKDSERPSGIPERFSGSSSGTTVTLTISGVQAEDEADYYCQSADSSHTYKVFGGGTKLTVL"
3,46.2 nM,"89Zr-DFO-scFv H1a050 (scFv, V domains shown) VH: EVQLVQSGGGLVQPDRSLRLSCAASGFTFDDYAMHWVRQAPGKGLEWVSGISWNSGSIGYADSVKGRFTISRDNAKNSLYLQMNSLRAEDTALYYCAKDLGSYYGSGSGMDVWGQGTTVTVSS VL: SYELTQPPSVSVSPGQTARITCSGNALPKQYAYWYQQKPGQAPVLMIYKDSERPSGIPERFSGSSSGTTVTLTISGVQAEDEADYYCQSADSSHTYKVFGGGTKLTVL"
4,78.2 nM,"89Zr-DFO-scFv H2a064 (scFv, V domains shown) VH: QVQLVQSGGGLVQPGRSLRLSCAASGFTFDDYAMHWVRQAPGKGLEWVSGISWNSGSIGYADSVKGRFTISRDNAKNSLYLQMNSLRAEDTALYYCAKDIGSSGWYGAFDIWGQGTTVTVSS VL: SYELTQPPSVSVSPGQTARITCSGDALPKHYASWYQQKPGQAPVLLIYKDTERPSGIPERFSGSSSGTTVTLTISGVQAEDEADYYCQSADSSVTVVFGGGTKLTVL"
5,114 nM,"DFO-conjugated His-Tag scFv clone H2a064 (scFv, V domains shown) VH: QVQLVQSGGGLVQPGRSLRLSCAASGFTFDDYAMHWVRQAPGKGLEWVSGISWNSGSIGYADSVKGRFTISRDNAKNSLYLQMNSLRAEDTALYYCAKDIGSSGWYGAFDIWGQGTTVTVSS VL: SYELTQPPSVSVSPGQTARITCSGDALPKHYASWYQQKPGQAPVLLIYKDTERPSGIPERFSGSSSGTTVTLTISGVQAEDEADYYCQSADSSVTVVFGGGTKLTVL"
6,59.6 nM,"Antihuman MSLN His-Tag scFv clone H2a064 (scFv, V domains shown) VH: QVQLVQSGGGLVQPGRSLRLSCAASGFTFDDYAMHWVRQAPGKGLEWVSGISWNSGSIGYADSVKGRFTISRDNAKNSLYLQMNSLRAEDTALYYCAKDIGSSGWYGAFDIWGQGTTVTVSS VL: SYELTQPPSVSVSPGQTARITCSGDALPKHYASWYQQKPGQAPVLLIYKDTERPSGIPERFSGSSSGTTVTLTISGVQAEDEADYYCQSADSSVTVVFGGGTKLTVL"
